According to article PMC5392723:
Substitutions are numbered along the chain they refer to.

Key:
Test in all cases: EMSA
[1] = biological target: T1, Glo qRRM3 (Drosophila, UniProt Q9VGH5 476-565)
T1 sequence: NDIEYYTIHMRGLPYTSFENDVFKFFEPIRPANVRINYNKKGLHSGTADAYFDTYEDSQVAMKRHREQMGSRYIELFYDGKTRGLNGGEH

[2] = biological target: T2, Glo qRRM2 (Drosophila, UniProt Q9VGH5 146-225)
T2 sequence: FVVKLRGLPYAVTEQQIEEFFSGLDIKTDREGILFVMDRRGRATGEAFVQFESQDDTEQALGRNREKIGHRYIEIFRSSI

[3] = biological target: T3, Glo qRRM1 (Drosophila, UniProt Q9VGH5 49-129)
T3 sequence: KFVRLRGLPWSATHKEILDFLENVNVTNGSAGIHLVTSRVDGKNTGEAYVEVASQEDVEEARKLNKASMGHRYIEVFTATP

[4] = biological target: T4, Glo qRRM1,2 R52A,K149A (Drosophila, UniProt Q9VGH5 49-225, R52A;K149A)
T4 sequence: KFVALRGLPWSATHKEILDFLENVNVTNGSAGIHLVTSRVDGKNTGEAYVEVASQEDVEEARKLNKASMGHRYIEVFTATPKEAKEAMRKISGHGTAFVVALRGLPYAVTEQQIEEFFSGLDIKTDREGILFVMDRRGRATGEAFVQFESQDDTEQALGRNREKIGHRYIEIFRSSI

[5] = biological target: T5, Glo qRRM1,2 W58A (Drosophila, UniProt Q9VGH5 49-225, W58A)
T5 sequence: T4 sequence with A4R, W10A, A101K

AGGGA (ssRNA) [G-tract RNA 5'-AGGGA]
Kd [1]: 170 nM | Kd [2]: 620 nM | Kd [3]: 180 nM | binding result [4]: binds | binding result [5]: binds
